Data as given in article PMC3064236.

Target: Mcm2-7 heterohexamer (X. laevis (endogenous in egg extract)) (UniProt P55861)
Experiment: SEC + other: glycerol gradient sedimentation

- stoichiometry N (hexamers in the complex): 2
Substance: Mcm2-7 heterohexamer, P55861 1-886; P49739 1-807; P30664 1-863; P55862 1-735; Q5FWY4 1-821; Q91876 1-720
